Data on 2 proteins can be found in article doi:10.1101/2024.06.27.600912 (bioRxiv, 2024).

The series deals with the molecule itself. As to the kind of experiment: cryo-EM structure.

B1: MORC2 phosphodead mutant (S725A, S730A, S739A, S743A, S777A, S779A), full length (natural protein)
chain: MAFTNYSSLNRAQLTFEYLHTNSTTHEFLFGALAELVDNARDADATRIDIYAERREDLRGGFMLCFLDDGAGMDPSDAASVIQFGKSAKRTPESTQIGQYGNGLKSGSMRIGKDFILFTKKEDTMTCLFLSRTFHEEEGIDEVIVPLPTWNARTREPVTDNVEKFAIETELIYKYSPFRTEEEVMTQFMKIPGDSGTLVIIFNLKLMDNGEPELDIISNPRDIQMAETSPEGTKPERRSFRAYAAVLYIDPRMRIFIHGHKVQTKRLSCCLYKPRMYKYTSSRFKTRAEQEVKKAEHVARIAEEKAREAESKARTLEVRLGGDLTRDSRVMLRQVQNRAITLRREADVKKRIKEAKQRALKEPKELNFVFGVNIEHRDLDGMFIYNCSRLIKMYEKVGPQLEGGMACGGVVGVVDVPYLVLEPTHNKQDFADAKEYRHLLRAMGEHLAQYWKDIAIAQRGIIKFWDEFGYLSANWNQPPSSELRYKRRRAMEIPTTIQCDLCLKWRTLPFQLSSVEKDYPDTWVCSMNPDPEQDRCEASEQKQKVPLGTFRKDMKTQEEKQKQLTEKIRQQQEKLEALQKTTPIRSQADLKKLPLEVTTRPSTEEPVRRPQRPRSPPLPAVIRNAPSRPPSLPTPRPASQPRKAPVISSTPKLPALAAREEASTSRLLQPPEAPRKPANTLVKTASRPAPLVQQLSPSLLPNSKSPREVPSPKVIKTPVVKKTEAPIKLAPATPSRKRAVAVADEEEVEEEAERRKERCKRGRFVVKEEKKDSNELADAAGEEDSADLKRAQKDKGLHVEVRVNREWYTGRVTAVEVGKHVVRWKVKFDYVPTDTTPRDRWVEKGSEDVRLMKPPSPEHQSLDTQQEGGEEEVGPVAQQAIAVAEPSTSECLRIEPDTTALSTNHETIDLLVQILRNCLRYFLPPSFPISKKQLSAMNSDELISFPLKEYFKQYEVGLQNLCNSYQSRADSRAKASEESLRTSERKLRETEEKLQKLRTNIVALLQKVQEDIDINTDDELDAYIEDLITKGD
As to B1, the binding result was “binds”.

B2: full-length MORC2 ATPase-dead mutant S87A (natural protein)
chain: MAFTNYSSLNRAQLTFEYLHTNSTTHEFLFGALAELVDNARDADATRIDIYAERREDLRGGFMLCFLDDGAGMDPSDAASVIQFGKAAKRTPESTQIGQYGNGLKSGSMRIGKDFILFTKKEDTMTCLFLSRTFHEEEGIDEVIVPLPTWNARTREPVTDNVEKFAIETELIYKYSPFRTEEEVMTQFMKIPGDSGTLVIIFNLKLMDNGEPELDIISNPRDIQMAETSPEGTKPERRSFRAYAAVLYIDPRMRIFIHGHKVQTKRLSCCLYKPRMYKYTSSRFKTRAEQEVKKAEHVARIAEEKAREAESKARTLEVRLGGDLTRDSRVMLRQVQNRAITLRREADVKKRIKEAKQRALKEPKELNFVFGVNIEHRDLDGMFIYNCSRLIKMYEKVGPQLEGGMACGGVVGVVDVPYLVLEPTHNKQDFADAKEYRHLLRAMGEHLAQYWKDIAIAQRGIIKFWDEFGYLSANWNQPPSSELRYKRRRAMEIPTTIQCDLCLKWRTLPFQLSSVEKDYPDTWVCSMNPDPEQDRCEASEQKQKVPLGTFRKDMKTQEEKQKQLTEKIRQQQEKLEALQKTTPIRSQADLKKLPLEVTTRPSTEEPVRRPQRPRSPPLPAVIRNAPSRPPSLPTPRPASQPRKAPVISSTPKLPALAAREEASTSRLLQPPEAPRKPANTLVKTASRPAPLVQQLSPSLLPNSKSPREVPSPKVIKTPVVKKTESPIKLSPATPSRKRSVAVSDEEEVEEEAERRKERCKRGRFVVKEEKKDSNELSDSAGEEDSADLKRAQKDKGLHVEVRVNREWYTGRVTAVEVGKHVVRWKVKFDYVPTDTTPRDRWVEKGSEDVRLMKPPSPEHQSLDTQQEGGEEEVGPVAQQAIAVAEPSTSECLRIEPDTTALSTNHETIDLLVQILRNCLRYFLPPSFPISKKQLSAMNSDELISFPLKEYFKQYEVGLQNLCNSYQSRADSRAKASEESLRTSERKLRETEEKLQKLRTNIVALLQKVQEDIDINTDDELDAYIEDLITKGD
Turning to B2, the binding result was “binds”.
